Test results taken from the Human Domainome abundance scans (Beltran et al. 2025).
± gives the uncertainty stated by the source.

B1: Double-stranded RNA-specific adenosine deaminase, residues 296 to 358; numbered along this chain, P55265 (parent)
chain: MAEIKEKICDYLFNVSDSSALNLAKNIGLTKARDINAVLIDMERQGDVYRQGTTPPIWHLTDK

Variants of: B1
Experiment: abundance fitness (aPCA) (normalised: wild type 0, dead -1); higher = more abundant; growth selection in yeast, the domain comes from the species named
Details: Homo sapiens

Row | Variant | abundance fitness
1 | MAEIKEKICDYLFNVSDSSALNLAKNIGLTKARDINAVLIDMERQGDVYRQGTTPPIHHLTDK [W58H] | -0.278 ± 0.093
2 | MAEIKEKICDYLFNVSDSSALNLAKNIGLTKARDINAVLIDMERQGDVYRQGTTPPIIHLTDK [W58I] | -0.366 ± 0.1
3 | MAEIKEKICDYLFNVSDSSALNLAKNIGLTKARDINAVLIDMERQGDVYRQGTTPPIKHLTDK [W58K] | -0.303 ± 0.042
4 | MAEIKEKICDYLFNVSDSSALNLAKNIGLTKARDINAVLIDMERQGDVYRQGTTPPIMHLTDK [W58M] | -0.362 ± 0.06
5 | MAEIKEKICDYLFNVSDSSALNLAKNIGLTKARDINAVLIDMERQGDVYRQGTTPPINHLTDK [W58N] | -0.296 ± 0.091
6 | MAEIKEKICDYLFNVSDSSALNLAKNIGLTKARDINAVLIDMERQGDVYRQGTTPPIPHLTDK [W58P] | -0.409 ± 0.097
7 | MAEIKEKICDYLFNVSDSSALNLAKNIGLTKARDINAVLIDMERQGDVYRQGTTPPIQHLTDK [W58Q] | -0.152 ± 0.071
8 | MAEIKEKICDYLFNVSDSSALNLAKNIGLTKARDINAVLIDMERQGDVYRQGTTPPIRHLTDK [W58R] | -0.242 ± 0.054
9 | MAEIKEKICDYLFNVSDSSALNLAKNIGLTKARDINAVLIDMERQGDVYRQGTTPPISHLTDK [W58S] | -0.254 ± 0.054
10 | MAEIKEKICDYLFNVSDSSALNLAKNIGLTKARDINAVLIDMERQGDVYRQGTTPPITHLTDK [W58T] | -0.251 ± 0.043
11 | MAEIKEKICDYLFNVSDSSALNLAKNIGLTKARDINAVLIDMERQGDVYRQGTTPPIVHLTDK [W58V] | -0.488 ± 0.053
12 | MAEIKEKICDYLFNVSDSSALNLAKNIGLTKARDINAVLIDMERQGDVYRQGTTPPIYHLTDK [W58Y] | -0.095 ± 0.067
13 | MAEIKEKICDYLFNVSDSSALNLAKNIGLTKARDINAVLIDMERQGDVYRQGTTPPIWALTDK [H59A] | 0.288 ± 0.048
14 | MAEIKEKICDYLFNVSDSSALNLAKNIGLTKARDINAVLIDMERQGDVYRQGTTPPIWCLTDK [H59C] | 0.095 ± 0.073
15 | MAEIKEKICDYLFNVSDSSALNLAKNIGLTKARDINAVLIDMERQGDVYRQGTTPPIWDLTDK [H59D] | -0.375 ± 0.081
16 | MAEIKEKICDYLFNVSDSSALNLAKNIGLTKARDINAVLIDMERQGDVYRQGTTPPIWELTDK [H59E] | -0.301 ± 0.092
17 | MAEIKEKICDYLFNVSDSSALNLAKNIGLTKARDINAVLIDMERQGDVYRQGTTPPIWFLTDK [H59F] | -0.329 ± 0.063
18 | MAEIKEKICDYLFNVSDSSALNLAKNIGLTKARDINAVLIDMERQGDVYRQGTTPPIWGLTDK [H59G] | 0.215 ± 0.044
19 | MAEIKEKICDYLFNVSDSSALNLAKNIGLTKARDINAVLIDMERQGDVYRQGTTPPIWILTDK [H59I] | -0.525 ± 0.09
20 | MAEIKEKICDYLFNVSDSSALNLAKNIGLTKARDINAVLIDMERQGDVYRQGTTPPIWKLTDK [H59K] | 0.294 ± 0.065
21 | MAEIKEKICDYLFNVSDSSALNLAKNIGLTKARDINAVLIDMERQGDVYRQGTTPPIWLLTDK [H59L] | -0.613 ± 0.063
22 | MAEIKEKICDYLFNVSDSSALNLAKNIGLTKARDINAVLIDMERQGDVYRQGTTPPIWMLTDK [H59M] | -0.259 ± 0.073

Row | Variant | abundance fitness
23 | MAEIKEKICDYLFNVSDSSALNLAKNIGLTKARDINAVLIDMERQGDVYRQGTTPPIWNLTDK [H59N] | -0.224 ± 0.058
24 | MAEIKEKICDYLFNVSDSSALNLAKNIGLTKARDINAVLIDMERQGDVYRQGTTPPIWPLTDK [H59P] | -0.524 ± 0.062
25 | MAEIKEKICDYLFNVSDSSALNLAKNIGLTKARDINAVLIDMERQGDVYRQGTTPPIWQLTDK [H59Q] | -0.175 ± 0.059
26 | MAEIKEKICDYLFNVSDSSALNLAKNIGLTKARDINAVLIDMERQGDVYRQGTTPPIWRLTDK [H59R] | 0.281 ± 0.036
27 | MAEIKEKICDYLFNVSDSSALNLAKNIGLTKARDINAVLIDMERQGDVYRQGTTPPIWSLTDK [H59S] | 0.263 ± 0.044
28 | MAEIKEKICDYLFNVSDSSALNLAKNIGLTKARDINAVLIDMERQGDVYRQGTTPPIWTLTDK [H59T] | -0.052 ± 0.056
29 | MAEIKEKICDYLFNVSDSSALNLAKNIGLTKARDINAVLIDMERQGDVYRQGTTPPIWVLTDK [H59V] | -0.282 ± 0.048
30 | MAEIKEKICDYLFNVSDSSALNLAKNIGLTKARDINAVLIDMERQGDVYRQGTTPPIWWLTDK [H59W] | -0.972 ± 0.1
31 | MAEIKEKICDYLFNVSDSSALNLAKNIGLTKARDINAVLIDMERQGDVYRQGTTPPIWYLTDK [H59Y] | -0.466 ± 0.078
32 | MAEIKEKICDYLFNVSDSSALNLAKNIGLTKARDINAVLIDMERQGDVYRQGTTPPIWHATDK [L60A] | -0.196 ± 0.06
33 | MAEIKEKICDYLFNVSDSSALNLAKNIGLTKARDINAVLIDMERQGDVYRQGTTPPIWHCTDK [L60C] | -0.662 ± 0.1
34 | MAEIKEKICDYLFNVSDSSALNLAKNIGLTKARDINAVLIDMERQGDVYRQGTTPPIWHDTDK [L60D] | -0.356 ± 0.1
35 | MAEIKEKICDYLFNVSDSSALNLAKNIGLTKARDINAVLIDMERQGDVYRQGTTPPIWHETDK [L60E] | -0.226 ± 0.082
36 | MAEIKEKICDYLFNVSDSSALNLAKNIGLTKARDINAVLIDMERQGDVYRQGTTPPIWHFTDK [L60F] | -0.598 ± 0.13
37 | MAEIKEKICDYLFNVSDSSALNLAKNIGLTKARDINAVLIDMERQGDVYRQGTTPPIWHGTDK [L60G] | -0.436 ± 0.057
38 | MAEIKEKICDYLFNVSDSSALNLAKNIGLTKARDINAVLIDMERQGDVYRQGTTPPIWHITDK [L60I] | -0.628 ± 0.12
39 | MAEIKEKICDYLFNVSDSSALNLAKNIGLTKARDINAVLIDMERQGDVYRQGTTPPIWHKTDK [L60K] | -0.494 ± 0.09
40 | MAEIKEKICDYLFNVSDSSALNLAKNIGLTKARDINAVLIDMERQGDVYRQGTTPPIWHMTDK [L60M] | -0.295 ± 0.06
41 | MAEIKEKICDYLFNVSDSSALNLAKNIGLTKARDINAVLIDMERQGDVYRQGTTPPIWHNTDK [L60N] | -0.425 ± 0.099
42 | MAEIKEKICDYLFNVSDSSALNLAKNIGLTKARDINAVLIDMERQGDVYRQGTTPPIWHQTDK [L60Q] | -0.764 ± 0.16
43 | MAEIKEKICDYLFNVSDSSALNLAKNIGLTKARDINAVLIDMERQGDVYRQGTTPPIWHRTDK [L60R] | -0.45 ± 0.044
